Source: paper PMC3713452 (2013)

Molecular target: T1, GST-Pdcd4 (GST fusion to full length Drosophila Pdcd4) (Drosophila, UniProt Q9VY91)
T1 chain: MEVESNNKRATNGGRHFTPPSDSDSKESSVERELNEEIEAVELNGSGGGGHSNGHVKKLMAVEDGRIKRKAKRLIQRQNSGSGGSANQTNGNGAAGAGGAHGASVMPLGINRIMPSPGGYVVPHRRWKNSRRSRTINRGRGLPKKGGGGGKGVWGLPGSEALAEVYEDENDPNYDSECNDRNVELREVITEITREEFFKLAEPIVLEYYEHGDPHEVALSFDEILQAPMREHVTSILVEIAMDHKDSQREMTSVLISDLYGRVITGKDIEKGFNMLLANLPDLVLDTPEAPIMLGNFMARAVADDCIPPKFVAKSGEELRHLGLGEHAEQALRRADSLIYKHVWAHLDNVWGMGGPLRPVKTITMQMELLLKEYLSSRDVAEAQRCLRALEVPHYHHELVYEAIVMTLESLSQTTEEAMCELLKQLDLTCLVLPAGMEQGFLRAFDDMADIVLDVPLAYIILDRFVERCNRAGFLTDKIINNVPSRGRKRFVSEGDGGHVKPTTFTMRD
Assay: GST pull-down (affinity chromatography, immunoblot)

B1: recombinant Drosophila eIF4A (6His eIF4A) (protein)
chain: MDDRNEIPQDGPASMEPEGVIESTWHEVYDNFDDMNLREELLRGIYGYGFEKPSAIQQRAIIPCVRGRDVIAQAQSGTGKTATFSIAILQQIDTSIRECQALILAPTRELATQIQRVVMALGEYMKVHSHACIGGTNVREDARILESGCHVVVGTPGRVYDMINRKVLRTQYIKLFVLDEADEMLSRGFKDQIQDVFKMLPPDVQVILLSATMPPDVLEVSRCFMRDPVSILVKKEELTLEGIKQFYVNVKQENWKLGTLCDLYDTLSITQSVIFCNTRRKVDQLTQEMSIHNFTVSAMHGDMEQRDREVIMKQFRSGSSRVLITTDLLARGIDVQQVSLVINYDLPSNRENYIHRIGRGGRFGRKGVAINFITDDDRRILKDIEQFYHTTIEEMPANIADLI
  binding result: binds
